Substitutions are numbered along the chain they refer to.
B1: tTF-GRGDSP fusion polypeptide with N-terminal affinity tag (other)
chain: HHHHHHSSGLVPRGSGMKETAAAKFERQHMDSPDLGTDDDDKAMGSGTTNTVAAYNLTWKSTNFKTILEWEPKPVNQVYTVQISTKSGDWKSKCFYTTDTECDLTDEIVKDVKQTYLARVFSYPAGNVESTGSAGEPLYENSPEFTPYLETNLGQPTIQSFEQVGTKVNVTVEDERTLVRRNNTFLSLRDVFGKDLIYTLYYWKSSSSGKKTAKTNTNEFLIDVDKGENYCFSVQAVIPSRTVNRKSTDSPVECMGQEKGEFRGRGDSP
notes: It was biotinylated for the FACS assay; also called tTF-RGD
B2: recombinant factor VIIa (Novo-Nordisk) (protein)
chain: ANAFLEELRPGSLERECKEEQCSFEEAREIFKDAERTKLFWISYSDGDQCASSPCQNGGSCKDQLQSYICFCLPAFEGRNCETHKDDQLICVNENGGCEQYCSDHTGTKRSCRCHEGYSLLADGVSCTPTVEYPCGKIPILEKRNASKPQGRIVGGKVCPKGECPWQVLLLVNGAQLCGGTLINTIWVVSAAHCFDKIKNWRNLIAVLGEHDLSEHDGDEQSRRVAQVIIPSTYVPGTTNHDIALLRLHQPVVLTDHVVPLCLPERTFSERTLAFVRFSLVSGWGQLLDRGATALELMVLNVPRLMTQDCLQQSRKVGDSPNITEYMFCAGYSDGSKDSCKGDSGGPHATHYRGTWYLTGIVSWGQGCATVGHFGVYTRVSQYIEWLQKLMRSEPRPGVLLRAPFP

Experiments:
[1] = molecular target: T1, integrin αvβ3 on cultivated human endothelial cells (human, UniProt P06756 31-1048; P05106 27-788); experiment: FACS, biotinylated protein (0.1 µM) on human endothelial cells in suspension, streptavidin-phycoerythrin detection; reference tTF
T1 construct: whole, on cells; The cells express αvβ3 naturally; also called αvβ3 on endothelial cells
T1 sequence (P06756 31-1048, chain 1 of 2): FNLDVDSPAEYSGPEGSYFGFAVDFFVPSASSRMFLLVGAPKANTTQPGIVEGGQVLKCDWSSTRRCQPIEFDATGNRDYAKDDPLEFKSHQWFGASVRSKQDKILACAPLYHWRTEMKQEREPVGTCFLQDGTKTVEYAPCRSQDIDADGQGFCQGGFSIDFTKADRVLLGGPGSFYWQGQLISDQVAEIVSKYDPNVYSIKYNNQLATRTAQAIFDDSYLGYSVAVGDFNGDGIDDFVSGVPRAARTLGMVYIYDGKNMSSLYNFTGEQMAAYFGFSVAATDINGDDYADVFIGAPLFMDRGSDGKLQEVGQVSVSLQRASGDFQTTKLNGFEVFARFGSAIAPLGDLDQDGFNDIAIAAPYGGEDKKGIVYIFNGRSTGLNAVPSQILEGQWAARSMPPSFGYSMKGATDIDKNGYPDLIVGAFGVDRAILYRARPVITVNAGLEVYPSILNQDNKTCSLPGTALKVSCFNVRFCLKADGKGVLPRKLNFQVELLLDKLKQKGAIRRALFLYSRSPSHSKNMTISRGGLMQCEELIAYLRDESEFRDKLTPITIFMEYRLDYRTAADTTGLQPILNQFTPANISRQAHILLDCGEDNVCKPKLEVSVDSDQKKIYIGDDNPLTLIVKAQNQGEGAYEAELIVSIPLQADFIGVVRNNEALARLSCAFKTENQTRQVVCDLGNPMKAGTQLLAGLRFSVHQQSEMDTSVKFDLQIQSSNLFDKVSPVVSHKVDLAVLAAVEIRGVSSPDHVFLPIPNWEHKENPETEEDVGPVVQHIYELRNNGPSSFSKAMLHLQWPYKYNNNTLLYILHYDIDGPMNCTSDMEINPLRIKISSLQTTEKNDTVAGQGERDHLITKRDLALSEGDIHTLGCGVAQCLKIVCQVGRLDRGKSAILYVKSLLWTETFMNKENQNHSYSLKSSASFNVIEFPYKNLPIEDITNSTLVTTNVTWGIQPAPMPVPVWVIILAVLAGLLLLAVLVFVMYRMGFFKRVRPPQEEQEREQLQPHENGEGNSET
T1 sequence (P05106 27-788, chain 2 of 2): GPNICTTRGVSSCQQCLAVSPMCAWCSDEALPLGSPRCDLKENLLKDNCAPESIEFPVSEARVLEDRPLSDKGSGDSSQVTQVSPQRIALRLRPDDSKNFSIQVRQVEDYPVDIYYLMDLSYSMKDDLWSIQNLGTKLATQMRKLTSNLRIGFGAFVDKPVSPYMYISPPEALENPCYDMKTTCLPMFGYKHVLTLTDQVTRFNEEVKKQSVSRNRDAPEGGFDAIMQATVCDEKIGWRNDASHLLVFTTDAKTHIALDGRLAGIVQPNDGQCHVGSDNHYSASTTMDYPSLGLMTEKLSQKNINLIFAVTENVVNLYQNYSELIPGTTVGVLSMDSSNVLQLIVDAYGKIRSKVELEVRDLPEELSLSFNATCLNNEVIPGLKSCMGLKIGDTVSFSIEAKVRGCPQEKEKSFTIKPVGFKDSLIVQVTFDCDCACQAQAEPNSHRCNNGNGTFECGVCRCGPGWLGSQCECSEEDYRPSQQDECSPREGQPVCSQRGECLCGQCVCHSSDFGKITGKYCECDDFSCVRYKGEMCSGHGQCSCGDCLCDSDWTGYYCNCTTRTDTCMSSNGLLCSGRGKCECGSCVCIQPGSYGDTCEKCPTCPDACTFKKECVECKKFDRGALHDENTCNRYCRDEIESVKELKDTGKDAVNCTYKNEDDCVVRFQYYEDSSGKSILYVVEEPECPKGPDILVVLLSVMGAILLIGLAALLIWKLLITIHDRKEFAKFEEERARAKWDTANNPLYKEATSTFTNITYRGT

[2] = molecular target: T2, tTF-GCNGRCG fusion polypeptide
T2 chain: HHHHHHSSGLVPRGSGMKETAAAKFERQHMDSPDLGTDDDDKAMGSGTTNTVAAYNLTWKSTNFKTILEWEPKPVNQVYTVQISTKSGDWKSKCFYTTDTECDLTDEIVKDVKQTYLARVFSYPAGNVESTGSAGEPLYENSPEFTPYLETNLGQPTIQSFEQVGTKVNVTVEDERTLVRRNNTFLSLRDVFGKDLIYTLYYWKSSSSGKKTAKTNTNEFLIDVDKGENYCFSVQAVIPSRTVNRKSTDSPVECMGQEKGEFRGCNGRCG

[3] = molecular target: the fusion polypeptides (tTF fusion polypeptides)
[4] = molecular target: T3, tTF-GALNGRSHAG fusion polypeptide
T3 chain: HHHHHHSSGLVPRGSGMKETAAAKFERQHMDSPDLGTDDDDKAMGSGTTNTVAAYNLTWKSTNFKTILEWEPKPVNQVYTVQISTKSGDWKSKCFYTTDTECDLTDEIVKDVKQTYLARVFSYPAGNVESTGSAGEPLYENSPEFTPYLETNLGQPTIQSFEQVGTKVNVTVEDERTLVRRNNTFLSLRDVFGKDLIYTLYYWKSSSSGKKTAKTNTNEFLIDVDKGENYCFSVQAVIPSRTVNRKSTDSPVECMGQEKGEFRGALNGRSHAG

[5] = molecular target: T4, tTF-GNGRAHA fusion polypeptide with N-terminal affinity tag
T4 chain: T2 chain with C265N, N266G, G267R, R268A, C269H, G270A

[6] = molecular target: T5, truncated human tissue factor tTF1-218
T5 chain: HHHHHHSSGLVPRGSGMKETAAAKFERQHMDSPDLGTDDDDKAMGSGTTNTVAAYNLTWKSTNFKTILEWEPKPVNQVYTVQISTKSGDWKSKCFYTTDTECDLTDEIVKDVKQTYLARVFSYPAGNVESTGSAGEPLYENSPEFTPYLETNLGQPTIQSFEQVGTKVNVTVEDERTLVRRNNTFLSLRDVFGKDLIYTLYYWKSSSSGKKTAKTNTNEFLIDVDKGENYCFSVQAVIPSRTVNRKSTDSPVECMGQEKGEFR

[7] = molecular target: T6, tTF-GCNGRCVSGCAGRC fusion polypeptide
T6 chain: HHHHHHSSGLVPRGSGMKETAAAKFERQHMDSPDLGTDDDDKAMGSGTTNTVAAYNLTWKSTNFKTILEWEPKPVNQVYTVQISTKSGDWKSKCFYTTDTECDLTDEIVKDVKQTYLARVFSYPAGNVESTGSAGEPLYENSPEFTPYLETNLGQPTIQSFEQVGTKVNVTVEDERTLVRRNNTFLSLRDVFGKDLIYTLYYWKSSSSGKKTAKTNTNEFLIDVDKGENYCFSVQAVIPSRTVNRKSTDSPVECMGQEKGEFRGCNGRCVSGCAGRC

[8] = molecular target: T7, tTF-GRGDSP fusion polypeptide with N-terminal affinity tag
T7 chain: B1 chain

[9] = molecular target: T8, tTF-GCVLNGRMEC fusion polypeptide
T8 chain: T3 chain with A265C, L266V, N267L, G268N, R269G, S270R, H271M, A272E, G273C

| Binder | fluorescence intensity, fold over tTF [1] | proteolytic activation of FX via FVIIa in the presence of phospholipids (chromogenic FXa assay) [2] | Michaelis constant (Km) for activation of FX by FVIIa/tTF fusion protein [3] | proteolytic activation of FX via FVIIa in the presence of phospholipids (chromogenic FXa assay) [4] | proteolytic activation of FX via FVIIa in the presence of phospholipids (chromogenic FXa assay) [5] | proteolytic activation of FX via FVIIa in the presence of phospholipids (chromogenic FXa assay) [6] | proteolytic activation of FX via FVIIa in the presence of phospholipids (chromogenic FXa assay) [7] | proteolytic activation of FX via FVIIa in the presence of phospholipids (chromogenic FXa assay) [8] | proteolytic activation of FX via FVIIa in the presence of phospholipids (chromogenic FXa assay) [9] |
| --- | --- | --- | --- | --- | --- | --- | --- | --- | --- |
| B1 | 8 fold | – | – | – | – | – | – | – | – |
| B2 | – | both tTF and the tTF fusion polypeptides are functionally active under these conditions | in the range 0.12-1.2 nM | both tTF and the tTF fusion polypeptides are functionally active under these conditions | both tTF and the tTF fusion polypeptides are functionally active under these conditions | both tTF and the tTF fusion polypeptides are functionally active under these conditions | both tTF and the tTF fusion polypeptides are functionally active under these conditions | both tTF and the tTF fusion polypeptides are functionally active under these conditions | both tTF and the tTF fusion polypeptides are functionally active under these conditions |

— patent publication US20070032419A1 (ONCOSCIENCE, published 2007)
